T1: TIM-3 ECD (extracellular domain of T cell immunoglobulin and mucin domain 3 protein) (UniProt Q8TDQ0 22-202, limits assumed)
T1 construct: extracellular domain; also called CD366
T1 sequence (looked up): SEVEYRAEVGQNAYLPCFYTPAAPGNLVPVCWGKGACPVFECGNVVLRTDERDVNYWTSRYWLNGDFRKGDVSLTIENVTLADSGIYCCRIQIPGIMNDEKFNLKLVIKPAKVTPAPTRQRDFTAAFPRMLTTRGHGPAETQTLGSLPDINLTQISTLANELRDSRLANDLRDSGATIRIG

B1: TRL6042 (antibody, V domains shown)
VH: QVQLVESGAEVKKPGESLKISCEGSGYKFTSYWIGWVRQMPGRGPEWMGLIYPSDSDTRYSPSFRGQVTISVDKTISTAYLQWSSLKTSDTAIYYCARLLLATECTSDSCFGDAFDIWGQGTMVTVSS
VL: DIVLTQSPTFLSASVGDRVTITCRASQGISSYLAWYQQKPGKAPKLLLYAASTLQSGVPSRFSGSRSGTEFTLTISSLQPEDFASYYCQQFHNYPFTFGGGTKVEIKR
notes: Native human mAb produced recombinantly; Kappa light chain; also called TIM-3 TRLmAb 6042
B2: TRL6099 (antibody, V domains shown)
VH: QVQLVESGAEVKKPGASVKVSCKAFNYTFTSYGISWVRQTPEHGLEWMGWITNSNSNSAQKFQGRVSMTTDTSTSTAYMQLRSLSSDDTAVYYCARIYIDYNNYGLDVWGQGTTVTVSS
VL: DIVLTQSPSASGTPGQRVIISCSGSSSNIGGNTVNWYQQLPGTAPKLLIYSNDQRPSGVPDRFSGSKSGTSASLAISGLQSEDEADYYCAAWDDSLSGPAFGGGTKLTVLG
notes: Lambda light chain
B3: TRL6061 (antibody, V domains shown)
VH: QVQLVESGGGVVQPGRSLRLSCAASGFMFSTSAMHWVRQTPGKGLEWLAVIWHDGSEKYYADSVKGRFSISRDNYRDTLYLQMNNLRVEDTAIYYCRGGDVYEIWGQGTMVAVSS
VL: DDIMLTQPPSVSVSPGQTARITCSGDAVAKRYVYWYQQKSGQAPVLVMYEDNKRPSGIPERFSGSSSGTKATLTITGALVEDEADYYCYSTDSSGNLGAFGGGSKLTVL
notes: Lambda light chain
B4: TRL6120 (antibody, V domains shown)
VH: QVQLVESGGGVVQPGRSLRLSCVASGFIFRTYAMHWVRQAPGKGLEWVAVIWPDGSERYYSDSTKGRFTVSRDNSKNTLFLQMNSLRVDDTAMYYCFARGYSDSDYADHWGRGTRVTVSS
VL: DIVMTQSPSVSVSPGQTARITCSGDALSTKFAYWYQQKSGQAPVLVIYEDNKRPSGIPERFSGSGSGTMATLSVSEAQVEDEADYYCFSSDSSGNLFMFGGGTKLTVL
notes: Lambda light chain; also called TIM-3 TRLmAb 6120

Target: T1, TIM-3 ECD (extracellular domain of T …)
Assay: adsorption ELISA on TIM-3 ECD, serial dilutions of purified mAb, estimate of binding affinity
Description: Purified mAbs were tested in adsorption ELISA using TIM-3 ECD, generated by Trellis in mammalian cells.

Binder	Affinity [nM]
B1	5
B2	0.011
B3	0.005
B4	28

Source: patent publication US20180186880A1 (TRELLIS BIOSCIENCE, published 2018)
